{"source": "paper PMC2928749", "origin": "cited, not measured here", "target": "hHR23B Ubl (Homo sapiens) (UniProt P54727)", "sequence (P54727 1-79)": "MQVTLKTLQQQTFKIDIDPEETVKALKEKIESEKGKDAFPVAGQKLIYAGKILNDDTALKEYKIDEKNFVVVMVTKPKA"}
{"substance": "Ataxin-3 Josephin (from UniProt P54252)", "values": [{"measurement": "Kd", "value": 12, "unit": "µM"}]}
